Some results are limits rather than exact numbers.

Experiment [1] addresses T1, recombinant human TSLP (human, UniProt Q969D9 29-159).
T1 construct: also called thymic stromal lymphopoietin
In words: SPR (Biacore 3000, CM5 chip, 25 C): complex captured via protein A, TSLP as analyte, 1:1 fit; column 'TSLP binding(pM)'. How it is done: (§1) SPR studies were carried out on a Biacore 3000 instrument with a CM5 chip at 25° C. The running buffer comprised 25 mM Hepes, pH 7.5, 150 mM NaCl, 0.5 mg/ml BSA, 0.005% P20. Antibodies were captured via protein A using approximately a 1/50 dilution of each antibody in the running buffer and a 2-minute contact time at a 10 μl/min flow rate. Protein A was immobilized on a CM5 chip via standard amine coupling chemistry in 10 mM acetate pH 4.5. Approximately 800 RU of each antibody was captured. The surfaces were regenerated via a 10 mM glycine pH 1.5 between cycles. Between assays the chip was regenerated with a 2-minute pulse of 100 mM Phosphoric acid. Prior to setting up multicycle kinetic analysis analyte concentration was determined spectrophotometrically using an extinction coefficient of 72,880 M⁻¹ cm⁻¹ for IL4R and 18450 M⁻¹ cm⁻¹ for the TSLP proteins respectively. Analyte samples were prepared by diluting stocks into running buffer to a final concentration of 500 nM for the IL-4R and 25 nM for TSLP followed by serially diluting with a 2-fold series with an association time of 2.5 minutes at a 50 μl/min flow rate. Dissociation data was collected for a period of 1600 seconds. Raw data was analyzed using the Scrubber2 (Biologic Software, AU) program using a double referencing procedure where compound signal is corrected to a blank surface and a buffer injection over the captured antibody surface. Kinetic data was analyzed by fitting to a simple 1:1 binding model. […] The candidates are further described in Table 3.

The target of experiment [2] is T1, recombinant human TSLP. In words: cell-based or functional assay.
For experiment [3], the target named is T1, recombinant human TSLP. In words: SPR; column 'SPR (Biophysical binding): TSLP (pM)'. How it is done:
as §1

In experiment [4] the target is T2, IL-4R on human donor PBMC (B-cells) (human, UniProt P24394 26-825). In words: cell-based or functional assay.
For experiment [5], the target named is T2, IL-4R on human donor PBMC (B-cells). The experiment is described as follows: cell-based or functional assay. This is another data set of the same source.

B1: Candidate-26: Light chain C-terminal TRAP: Dupilumab-YTE_Linker-GS4_TSLP TRAP 2 [2 x TRAP 2] (bispecific antibody, human IgG4 S228P, kappa)
heavy: EVQLVESGGGLEQPGGSLRLSCAGSGFTFRDYAMTWVRQAPGKGLEWVSSISGSGGNTYYADSVKGRFTISRDNSKNTLYLQMNSLRAEDTAVYYCAKDRLSITIRPRYYGLDVWGQGTTVTVSSASTKGPSVFPLAPCSRSTSESTAALGCLVKDYFPEPVTVSWNSGALTSGVHTFPAVLQSSGLYSLSSVVTVPSSSLGTKTYTCNVDHKPSNTKVDKRVESKYGPPCPPCPAPEFLGGPSVFLFPPKPKDTLYITREPEVTCVVVDVSQEDPEVQFNWYVDGVEVHNAKTKPREEQFNSTYRVVSVLTVLHQDWLNGKEYKCKVSNKGLPSSIEKTISKAKGQPREPQVYTLPPSQEEMTKNQVSLTCLVKGFYPSDIAVEWESNGQPENNYKTTPPVLDSDGSFFLYSRLTVDKSRWQEGNVFSCSVMHEALHNHYTQKSLSLSLG
light: DIVMTQSPLSLPVTPGEPASISCRSSQSLLYSIGYNYLDWYLQKSGQSPQLLIYLGSNRASGVPDRFSGSGSGTDFTLKISRVEAEDVGFYYCMQALQTPYTFGQGTKLEIKRTVAAPSVFIFPPSDEQLKSGTASVVCLLNNFYPREAKVQWKVDNALQSGNSQESVTEQDSKDSTYSLSSTLTLSKADYEKHKVYACEVTHQGLSSPVTKSFNRGECGGGGSGGGGSGGGGSGGGGSESGYAQNGDLEDAELDDYSFSCYSQLEVNGSQHSLTCAFEDPDVNITNLEFEICGALVEVKCLNFRKLQEIYFIETKKFLLIGKSNICVKVGEKSLTCKKIDLTTIVKPEAPFDLSVVYREGANDFVVTFNTSHLQKKYVKVLMHDVAYRQEKDENKWTHVNLSSTKLTLLQRKLQPAAMYEIKVRSIPDHYFKGFWSEWSPSYYFRTPEINNSSGEMDGGSGGSGGSGGSGGSGGSGGSGGSGGSGGSGGSGGSGGSGGSGGSGGSGGSGGSGGSGGSGAAEGVQIQIIYFNLETVQVTWNASKYSRTNLTFHYRFNGDEAYDQCTNYLLQEGHTSGCLLDAEQRDDILYFSIRNGTHPVFTASRWMVYYLKPSSPKHVRFSWHQDAVTVTCSDLSYGDLLYEVQYRSPFDTEWQSKQENTCNVTIEGLDAEKCYSFWVRVKAMEDVYGPDTYPSDWSEVTCWQRGEIRDACAETPTPPKPKLSK
notes: The chains here are built from the component entries
Turning to B1, the Kd in experiment [1] and in experiment [3] was 0.0083 nM in each case. For the same molecule, the “IC50, inhibition of TSLP responses (TARC secretion) in human PBMCs” value in experiment [2] came to 7.8 nM. In addition, the “IC50, CD23 upregulation on B cells of human PBMC in response to IL-4 (column 'Biological Assays: IL-4R (nM)')” value in experiment [4] was over 200 nM.

B2: Candidate-24: Dupilumab-YTE_Linker-GS4_TSLP TRAP 2 (bispecific antibody, human IgG4 S228P, kappa)
heavy: EVQLVESGGGLEQPGGSLRLSCAGSGFTFRDYAMTWVRQAPGKGLEWVSSISGSGGNTYYADSVKGRFTISRDNSKNTLYLQMNSLRAEDTAVYYCAKDRLSITIRPRYYGLDVWGQGTTVTVSSASTKGPSVFPLAPCSRSTSESTAALGCLVKDYFPEPVTVSWNSGALTSGVHTFPAVLQSSGLYSLSSVVTVPSSSLGTKTYTCNVDHKPSNTKVDKRVESKYGPPCPPCPAPEFLGGPSVFLFPPKPKDTLYITREPEVTCVVVDVSQEDPEVQFNWYVDGVEVHNAKTKPREEQFNSTYRVVSVLTVLHQDWLNGKEYKCKVSNKGLPSSIEKTISKAKGQPREPQVYTLPPSQEEMTKNQVSLTCLVKGFYPSDIAVEWESNGQPENNYKTTPPVLDSDGSFFLYSRLTVDKSRWQEGNVFSCSVMHEALHNHYTQKSLSLSLGGGGGSGGGGSGGGGSGGGGSESGYAQNGDLEDAELDDYSFSCYSQLEVNGSQHSLTCAFEDPDVNITNLEFEICGALVEVKCLNFRKLQEIYFIETKKFLLIGKSNICVKVGEKSLTCKKIDLTTIVKPEAPFDLSVVYREGANDFVVTFNTSHLQKKYVKVLMHDVAYRQEKDENKWTHVNLSSTKLTLLQRKLQPAAMYEIKVRSIPDHYFKGFWSEWSPSYYFRTPEINNSSGEMDGGSGGSGGSGGSGGSGGSGGSGGSGGSGGSGGSGGSGGSGGSGGSGGSGGSGGSGGSGGSGAAEGVQIQIIYFNLETVQVTWNASKYSRTNLTFHYRFNGDEAYDQCTNYLLQEGHTSGCLLDAEQRDDILYFSIRNGTHPVFTASRWMVYYLKPSSPKHVRFSWHQDAVTVTCSDLSYGDLLYEVQYRSPFDTEWQSKQENTCNVTIEGLDAEKCYSFWVRVKAMEDVYGPDTYPSDWSEVTCWQRGEIRDACAETPTPPKPKLSK
light: DIVMTQSPLSLPVTPGEPASISCRSSQSLLYSIGYNYLDWYLQKSGQSPQLLIYLGSNRASGVPDRFSGSGSGTDFTLKISRVEAEDVGFYYCMQALQTPYTFGQGTKLEIKRTVAAPSVFIFPPSDEQLKSGTASVVCLLNNFYPREAKVQWKVDNALQSGNSQESVTEQDSKDSTYSLSSTLTLSKADYEKHKVYACEVTHQGLSSPVTKSFNRGEC
notes: The chains here are built from the component entries; TRAP sits at the C-terminus of the heavy chain
Regarding B2, the equilibrium dissociation constant (Kd) in experiment [1] and in experiment [3] was 0.0168 nM each time. In addition, the “IC50, TARC secretion in response to TSLP in PBMCs” value in experiment [2] amounted to 4.3 nM. Further, in experiment [5], the “IC50, upregulation of CD23 in response to IL-4 in PBMCs” value stood at 12.5 nM.

B3: Candidate-21: TSLP TRAP 1_Linker-GS4_Dupilumab-YTE (bispecific antibody, human IgG4 S228P, kappa)
heavy: GAAEGVQIQIIYFNLETVQVTWNASKYSRTNLTFHYRFNGDEAYDQCTNYLLQEGHTSGCLLDAEQRDDILYFSIRNGTHPVFTASRWMVYYLKPSSPKHVRFSWHQDAVTVTCSDLSYGDLLYEVQYRSPFDTEWQSKQENTCNVTIEGLDAEKCYSFWVRVKAMEDVYGPDTYPSDWSEVTCWQRGEIRDACAETPTPPKPKLSKGGSGGSGGSGGSGGSGGSGGSGGSGGSGGSGGSGGSGGSGGSGGSGGSGGSGGSGGSGGSESGYAQNGDLEDAELDDYSFSCYSQLEVNGSQHSLTCAFEDPDVNITNLEFEICGALVEVKCLNFRKLQEIYFIETKKFLLIGKSNICVKVGEKSLTCKKIDLTTIVKPEAPFDLSVVYREGANDFVVTFNTSHLQKKYVKVLMHDVAYRQEKDENKWTHVNLSSTKLTLLQRKLQPAAMYEIKVRSIPDHYFKGFWSEWSPSYYFRTPEINNSSGEMDGGGGSGGGGSGGGGSGGGGSEVQLVESGGGLEQPGGSLRLSCAGSGFTFRDYAMTWVRQAPGKGLEWVSSISGSGGNTYYADSVKGRFTISRDNSKNTLYLQMNSLRAEDTAVYYCAKDRLSITIRPRYYGLDVWGQGTTVTVSSASTKGPSVFPLAPCSRSTSESTAALGCLVKDYFPEPVTVSWNSGALTSGVHTFPAVLQSSGLYSLSSVVTVPSSSLGTKTYTCNVDHKPSNTKVDKRVESKYGPPCPPCPAPEFLGGPSVFLFPPKPKDTLYITREPEVTCVVVDVSQEDPEVQFNWYVDGVEVHNAKTKPREEQFNSTYRVVSVLTVLHQDWLNGKEYKCKVSNKGLPSSIEKTISKAKGQPREPQVYTLPPSQEEMTKNQVSLTCLVKGFYPSDIAVEWESNGQPENNYKTTPPVLDSDGSFFLYSRLTVDKSRWQEGNVFSCSVMHEALHNHYTQKSLSLSLG
light: B2 light
notes: TRAP sits at the N-terminus of the heavy chain
With B3, the Kd in experiment [1] and in experiment [3] was 0.0208 nM throughout. Besides, the “IC50, PBMC assay in response to TSLP (TARC secretion)” value in experiment [2] stood at 2.3 nM. Moreover, the “IC50, IL-4 biological assay (CD23 upregulation in PBMCs)” value in experiment [5] was over 200 nM.

B4: Candidate-22: TSLP TRAP 2_Linker-GS4_Dupilumab-YTE (bispecific antibody, human IgG4 S228P, kappa)
heavy: ESGYAQNGDLEDAELDDYSFSCYSQLEVNGSQHSLTCAFEDPDVNITNLEFEICGALVEVKCLNFRKLQEIYFIETKKFLLIGKSNICVKVGEKSLTCKKIDLTTIVKPEAPFDLSVVYREGANDFVVTFNTSHLQKKYVKVLMHDVAYRQEKDENKWTHVNLSSTKLTLLQRKLQPAAMYEIKVRSIPDHYFKGFWSEWSPSYYFRTPEINNSSGEMDGGSGGSGGSGGSGGSGGSGGSGGSGGSGGSGGSGGSGGSGGSGGSGGSGGSGGSGGSGGSGAAEGVQIQIIYFNLETVQVTWNASKYSRTNLTFHYRFNGDEAYDQCTNYLLQEGHTSGCLLDAEQRDDILYFSIRNGTHPVFTASRWMVYYLKPSSPKHVRFSWHQDAVTVTCSDLSYGDLLYEVQYRSPFDTEWQSKQENTCNVTIEGLDAEKCYSFWVRVKAMEDVYGPDTYPSDWSEVTCWQRGEIRDACAETPTPPKPKLSKGGGGSGGGGSGGGGSGGGGSEVQLVESGGGLEQPGGSLRLSCAGSGFTFRDYAMTWVRQAPGKGLEWVSSISGSGGNTYYADSVKGRFTISRDNSKNTLYLQMNSLRAEDTAVYYCAKDRLSITIRPRYYGLDVWGQGTTVTVSSASTKGPSVFPLAPCSRSTSESTAALGCLVKDYFPEPVTVSWNSGALTSGVHTFPAVLQSSGLYSLSSVVTVPSSSLGTKTYTCNVDHKPSNTKVDKRVESKYGPPCPPCPAPEFLGGPSVFLFPPKPKDTLYITREPEVTCVVVDVSQEDPEVQFNWYVDGVEVHNAKTKPREEQFNSTYRVVSVLTVLHQDWLNGKEYKCKVSNKGLPSSIEKTISKAKGQPREPQVYTLPPSQEEMTKNQVSLTCLVKGFYPSDIAVEWESNGQPENNYKTTPPVLDSDGSFFLYSRLTVDKSRWQEGNVFSCSVMHEALHNHYTQKSLSLSLG
light: B2 light
notes: The chains here are built from the component entries; TRAP sits at the N-terminus of the heavy chain
As for B4, the Kd in experiment [1] and in experiment [3] was 0.019 nM in each case. For the same molecule, in experiment [2], the “IC50, PBMC assay in response to TSLP (TARC secretion)” value was 0.43 nM. Further, in experiment [5], the “IC50, IL-4 biological assay (CD23 upregulation in PBMCs)” value is over 200 nM.

One may read the Kd as the concentration at which binding is half-saturated.

The record behind these values is patent publication US20260139033A1 (PRANA THERAPIES, published 2026).
